# Results: article PMC2171850
# Molecular target: Hrp65, endogenous in C. tentans tissue culture cells (C. tentans (endogenous in C. tentans tissue culture cells))
# Test: co-IP
substance,measurement,value
"Hrp59, endogenous in C. tentans tissue culture cells (natural protein)",percent of the association that is RNase-sensitive,50%
